Measurements taken from patent publication US20190225665A1 (Stanford University, published 2019).
Changes are numbered by the printed parent chain.

B1: Synthekine 2 (designed binder)
chain: ARGCHIAQFKSLSPAELQAFKRAKDALEESLLLKDCKCRSRLFPRTWDLRQLQVRERPVALEAELALTLKVLEATADTDPALGDVLDAPLATLHHILSQLRACIQPQPTAGPRTRGRLHRWLHRLQEAPKKESPGCLEASVTFNLFRLLARDLNCVASGDLCEGSGSGLGCDLPQNHGLLSANTLVLLHQMRRISPFLCAKDARDFRFPQEMVKGSQLQKAHVMSVLHEMLQQIFSLFHTERSSAAWNMTLLDQLHTGLHQQLQHLETCLLQVVGEGESAGAISSPALTLRRYFQGIRVYLKEKKYSDCAWEVVRMEIMASLFLSTNMQERLRSKDRDLGSSAAAHHHHHH
B2: wild-type IFN-λ3 (ligand)
chain: PVARLRGALPDARGCHIAQFKSLSPQELQAFKRAKDALEESLLLKDCKCRSRLFPRTWDLRQLQVRERPVALEAELALTLKVLEATADTDPALGDVLDQPLHTLHHILSQLRACIQPQPTAGPRTRGRLHHWLHRLQEAPKKESPGCLEASVTFNLFRLLTRDLNCVASGDLCV
notes: For SPR it was expressed in Hi5 insect cells; also called IL-28B; IFN-λ3 wt
B3: IFN-λ3 H11 (ligand)
chain: B2 chain with Q26R, E84D, H131R, T161A, V174E
notes: also called engineered IFN-λ3 H11
B4: IL-10Rβ (monomer) (receptor, human, UniProt Q08334 20-220, looked up)
chain: MVPPPENVRMNSVNFKNILQWESPAFAKGNLTFTAQYLSYRIFQDKCMNTTLTECDFSSLSKYGDHTLRVRAEFADEHSDWVNITFCPVDDTIIGPPGMQVEVLADSLHMRFLAPKIENEYETWTMKNVYNSWTYNVQYWKNGTDEKFQITPQYDFEVLRNLEPWTTYCVQVRGFLPDRNKAGEWSEPVCEQTTHDETVPS
notes: Soluble receptor expressed in Hi5 insect cells; also called IL-10 Receptor Beta; IL-10R2

Experiments:
[1] = target: T1, IFNλR1/IFNAR1 receptor dimer (on Hap1 cells) (UniProt Q8IU57 21-520; P17181 28-557, limits assumed); assay: cell-based or functional assay
T1 sequence (looked up) 1: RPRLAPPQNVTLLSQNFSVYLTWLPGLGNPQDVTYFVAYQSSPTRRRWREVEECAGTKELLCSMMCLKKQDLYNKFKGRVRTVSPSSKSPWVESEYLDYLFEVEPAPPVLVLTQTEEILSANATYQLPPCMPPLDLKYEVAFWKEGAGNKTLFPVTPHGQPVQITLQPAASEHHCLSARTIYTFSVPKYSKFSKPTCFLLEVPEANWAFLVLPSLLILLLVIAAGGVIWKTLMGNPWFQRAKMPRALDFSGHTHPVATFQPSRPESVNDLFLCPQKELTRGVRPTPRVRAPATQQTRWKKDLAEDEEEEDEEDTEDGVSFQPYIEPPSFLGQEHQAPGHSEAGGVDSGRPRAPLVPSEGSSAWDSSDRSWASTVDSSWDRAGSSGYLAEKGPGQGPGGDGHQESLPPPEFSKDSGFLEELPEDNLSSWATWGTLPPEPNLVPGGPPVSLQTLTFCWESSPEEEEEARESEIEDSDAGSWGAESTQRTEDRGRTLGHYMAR
T1 sequence (looked up) 2: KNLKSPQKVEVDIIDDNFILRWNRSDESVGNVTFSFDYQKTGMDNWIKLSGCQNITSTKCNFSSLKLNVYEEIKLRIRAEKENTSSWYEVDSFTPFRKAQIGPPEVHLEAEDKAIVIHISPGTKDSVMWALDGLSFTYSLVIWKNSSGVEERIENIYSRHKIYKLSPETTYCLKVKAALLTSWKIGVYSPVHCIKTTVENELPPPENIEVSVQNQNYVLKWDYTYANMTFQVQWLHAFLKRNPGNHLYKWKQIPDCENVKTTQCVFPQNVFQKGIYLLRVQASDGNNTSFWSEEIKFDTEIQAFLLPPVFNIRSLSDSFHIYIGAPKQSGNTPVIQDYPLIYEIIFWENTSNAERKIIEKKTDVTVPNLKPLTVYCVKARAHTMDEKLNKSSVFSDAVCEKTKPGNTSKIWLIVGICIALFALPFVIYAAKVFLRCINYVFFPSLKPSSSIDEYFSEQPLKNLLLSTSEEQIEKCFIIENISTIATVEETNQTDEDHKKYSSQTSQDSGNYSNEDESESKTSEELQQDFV

[2] = target: T2, IL-10Rβ streptavidin tetramers (human, UniProt Q08334 20-220; P22629 37-163); assay: flow cytometry of yeast displaying IFN-λ3, no IFN-λR1 present
T2 construct: Same receptor as m4, multimerised on streptavidin for staining of yeast; also called avidity-enhanced tetrameric form of IL-10Rβ; IL-10Rβ tetramer
Method: (§1) KD values were determined by fitting to a first order equilibrium binding model.
(§2) We used yeast surface display as a platform for engineering a higher affinity IFN-λ.

IL-10Rβ (monomer) [3] = target: B4; assay: as above
Method: as §1, §2

IFN-λR1 [4] = target: T3, IFN-λR1 (human, UniProt Q8IU57 21-228, limits assumed); assay: yeast surface display titration with IFN-λR1, flow cytometry (FIG. 7B legend gives KD=400 nM)
T3 construct: Soluble receptor expressed in Hi5 insect cells; It was captured on a Biotin CAP chip for SPR and used as streptavidin tetramers or soluble protein in the yeast assays; For crystallography it was expressed in HEK293 GnTI- cells and deglycosylated with EndoF and EndoH; also called IL-28RA; IFNλ Receptor 1
T3 sequence (looked up): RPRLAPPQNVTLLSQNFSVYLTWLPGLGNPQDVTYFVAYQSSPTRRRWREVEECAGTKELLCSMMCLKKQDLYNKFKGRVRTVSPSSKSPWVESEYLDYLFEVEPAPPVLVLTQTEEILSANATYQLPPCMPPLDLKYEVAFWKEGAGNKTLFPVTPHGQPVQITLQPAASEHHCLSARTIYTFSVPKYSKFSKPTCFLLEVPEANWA

IFN-λR1 [5] = target: T3, IFN-λR1; assay: SPR, equilibrium fit; wild-type IFN-λ3 binding IFN-λR1
Method: as §1
(§3) Surface plasmon resonance. GE Biacore T100 was used to measure the KD by either kinetic (type I IFNs) or equilibrium (type III IFNs) methods. Approximately 100 RU of each of the receptors of were captured on a Biotin CAP-chip (GE) including a reference channel of an unrelated cytokine receptor (IL-2Rβ).

[6] = target: T4, heterodimeric receptor composed of IL-10Rβ and IFN-λR1 (on cells) (human, UniProt Q8IU57 21-520; Q08334 20-325); assay: cell-based or functional assay
T4 sequence (looked up) 1: T1 sequence (looked up) 1
T4 sequence (looked up) 2: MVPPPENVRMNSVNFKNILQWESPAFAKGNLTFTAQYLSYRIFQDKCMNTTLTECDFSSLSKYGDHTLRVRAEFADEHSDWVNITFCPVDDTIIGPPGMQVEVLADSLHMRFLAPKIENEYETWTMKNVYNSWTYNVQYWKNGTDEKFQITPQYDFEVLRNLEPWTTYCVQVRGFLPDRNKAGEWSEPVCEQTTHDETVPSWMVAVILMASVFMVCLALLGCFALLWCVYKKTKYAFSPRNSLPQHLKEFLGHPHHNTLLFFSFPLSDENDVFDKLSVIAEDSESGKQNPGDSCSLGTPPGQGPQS

IFN-λR1 [7] = target: T3, IFN-λR1; assay: SPR, equilibrium fit; H11 (carries Thr150Ala) binding IFN-λR1
Method: as §1, §3

IL-10Rβ (monomer) [8] = target: B4; assay: yeast-surface titration with IL-10Rβ (affinity maturation was done with soluble IFN-λR1 bound to the displayed cytokine); on-yeast titration, H11 displayed on yeast; presence of IFN-λR1 not stated for the titration
IFN-λR1 [9] = target: T3, IFN-λR1; assay: SPR, equilibrium fit
Method: as §1, §3

[10] = target: T5, wild-type IFN-λ3/IFN-λR1 binary complex (human, UniProt Q8IU57 21-228, limits assumed); assay: surface plasmon resonance, equilibrium fit; binary complex on the sensor chip, IL-10Rβ as analyte up to 100 uM
T5 construct: Complex of m1 and m3; In SPR it was the immobilized binary complex; also called IFN-λ/IFN-λR1 binary complex; wild-type IFN-λR1/IFN-λ3
T5 sequence 1: B2 chain
T5 sequence 2: T3 sequence (looked up)
Method: as §1, §3

[11] = target: T6, H11/IFN-λR1 binary complex (human, UniProt Q8IU57 21-228, limits assumed); assay: SPR, equilibrium fit, immobilized binary complexes
T6 construct: Complex of m2 and m3, immobilized for SPR; also called IFN-λ3 H11/IFN-λR1 binary complex; H11-containing binary complex
T6 sequence 1: B2 chain with Q26R, E84D, H131R, T161A, V174E
T6 sequence 2: T3 sequence (looked up)
Method: as §1, §3

[12] = target: T6, H11/IFN-λR1 binary complex; assay: SPR, equilibrium fit, immobilized H11/IFN-λR1 binary complex; SPR; IL-10Rβ over the immobilized H11/IFN-λR1 binary complex
Method: as §1, §3

T2 sequence (P22629 37-163, one chain of several): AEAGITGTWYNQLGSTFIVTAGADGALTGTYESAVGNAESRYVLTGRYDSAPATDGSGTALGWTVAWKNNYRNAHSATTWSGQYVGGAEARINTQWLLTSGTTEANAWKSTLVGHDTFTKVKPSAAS

## B1
[1]
  Emax of phospho-STAT1 activation in Hap1 cells: 2 fold of the signal induced by type III IFNs

## B2
[2]
  binding result: no binding
IL-10Rβ (monomer) [3]
  binding result: no binding
IFN-λR1 [4]
  Kd: ~400 nM
IFN-λR1 [5]
  Kd: 850 nM

## B3
[6]
  EC50 for phospho-Stat1 on Hap1 cells, fold improvement over wild-type IFN-λ3: 100 fold
  anti-viral potency on Huh7.5 cells infected with HCV, fold over wild-type IFN-λ3: 12 fold
IFN-λR1 [7]
  Kd: 150 nM
IL-10Rβ (monomer) [8]
  Kd: 200 nM
IFN-λR1 [9]
  fold higher affinity against wild-type IFN-λ3: ~5 fold

## B4
[10]
  Kd: 16000 nM
[11]
  fold increase in IL-10Rβ affinity against the wild-type IFN-λ3/IFN-λR1 binary complex: 30 fold
[12]
  Kd: 560 nM
